Experimental data published in US6716574B2, “Osp-C derived peptide fragments” (Dako A/S, priority 1996, dated 2004).

Legend:
Format in all cases: binding, human
[1] = system: IgM antibodies to OspC in sera from patients; assay: Indirect streptavidin ELISA for IgM antibodies against carboxy-terminal OspC deca-peptide (peptide ELISA)
Experimental: Indirect Streptavidin ELISA for IgM Antibodies against Carboxy-terminal OspC Deca-peptide (Peptide ELISA)
Flat-bottom microdilution plates (Maxisorb; Nunc, Roskilde, Denmark) were coated with 100 μl of streptavidin (ZYMED, S. Avidinii) 2.5 μg/ml in citrate buffer (pH 5) and incubated overnight at 4° C. The plates were washed four times a one minute with phosphate buffered saline (PBS) containing 0.5 M NaCl and 0.1% (vol/vol) Tween 20 (pH 7.2), 100 μl of the biotinylated synthetic peptide
(prodiluted in PBS containing 0.37 M NaCl, 0.5% (vol/vol) Tween 20, and 1% (wt/vol) milk powder (pH 7.0)) was added to the wells and the plates were incubated overnight at 4° C. The plates were washed four times a one minute with PBS containing 0.5 M NaCl and 0.1% (vol/vol) Tween 20 (pH 7.2), and 100 μl of test serum diluted 1:200 in PBS containing 0.7 M NaCl, 0.1% (vol/vol) Tween 20, and 1% (wt/vol) milkpowder (pH 7, 2) was added to the wells and incubated for 2 hours at 20° C. on a rocker platform. The plates were washed four times à one minute with PBS containing 0.5 M NaCl and 0.1% (vol/vol) Tween 20 (pH 7.2), and 100 μl of peroxidase conjugated rabbit anti-human IgM (code P215; Dako-patts, Copenhagen, Denmark) diluted 1:1000 in PBS containing 0.5% Tween 20 and 1% milkpowder (pH 7.4) was added to the wells and incubated for 1 h at 20° C. The plates were washed four times à one minute with PBS containing 0.5 M NaCl and 0.1% (vol/vol) Tween 20 (pH 7.2), and 200 μl of the substrate o-phenylenediamine (0.33 mg/ml; Kem-En-Tec, Denmark, tablets of 10 mg) in citrate buffer (pH 5) with 0.04% (vol/vol) H2O2 was added to each well. After 15 minutes protected from light, the enzymatic reaction was stopped by the addition of 50 μl of 3 M H2SO4. The optical density (OD) at 492 nm was read spectrophotometrically on an Immuno Reader, Easy reader EAR 400 AC, SLT Labinstruments, AUSTRIA. Samples were tested in duplicate and retested if the two OD values differed more than 10% from the mean. To eliminate plate-to-plate and day-to-day variations, a reference serum pool based on seven western blot positive sera were included on every plate for construction of a standard dilution curve with a two fold dilution ranging from 1:200 to 1:6400. The OD value of every sample was adjusted to this standard curve. Positive and negative control sera were included on every plate. The positive control sera were diluted 1:200, 1:400 and 1:800 on every plate to check for parallelism between the standard reference curve and the dilution curve of the positive control sera. […]

[2] = system: IgM antibodies to OspC in sera from patients; assay: Indirect ELISA for IgM antibodies to full-length and truncated recombinant OspC (rOspC ELISA); details: for Positive rOspCt ELISA results: B. garinii rOspCt; for diagnostic sensitivity for IgM: set of preliminary tests
Experimental: Indirect ELISA for IgM Antibodies to Full-length and Truncated Recombinant OspC (rOspC ELISA)
Flat-bottom microdilution plates (Maxisorb; Nunc, Roskilde, Denmark) were coated with 100 μl of rOspC diluted in 0.05 M bicarbonate pH 9.6 for 1 hour at 20° C. on a rocker platform and thereafter overnight at 4° C. The optimum coating concentration was defined as the antigen dilution resulting in the highest ratio of the optical density (OD) between a positive and a negative control serum (P/N ratio). The plates were washed four times à one minute with PBS containing 0.5 M NaCL, and 0.1% (vol/vol) Tween 20 (pH 7.2) and unspecific protein binding was blocked with 100 μl 3% (wt/vol) milk powder in PBS for 1 hour. The plates were washed four times à one minute with PBS containing 0.5 M NaCL, and 0.1% (vol/vol) Tween 20 (pH 7.2). 100 μl of serum diluted 1:200 in PBS containing 0.1% (vol/vol) Tween 20, 0.02% NaN3 and 1% (wt/vol) milk powder was added to the wells and incubated for 2 h at 20° C. The plates were washed four times à one minute with PBS containing 0.5 M NaCL, and 0.1% (vol/vol) Tween 20 (pH 7.2) and 100 μl peroxidase conjugated rabbit anti-human immunoglobulin M (IgM) (Dakopats, Copenhagen, Denmark, code P-215) diluted 1:1000 in PBS pH 7.4 with 0.05% (vol/vol) Tween 20 and 1% (wt/vol) milk powder. After the incubation for 1 h at 20° C. the plates were washed four times à one minute with PBS containing 0.5 M NaCL, and 0.1% (vol/vol) Tween 20 (pH 7.2) and 200 μl of the substrate o-phenylenediamine (0.41 mg/ml; Sigma) in citrate buffer (pH 5) with 0.04% (vol/vol) H2O2) was added to each well. After 15 minutes protected from light, the enzymatic reaction was stopped by the addition of 50 μl of 3M H2SO4. The optical density (OD) at 492 nm was read spectrophotometrically (Immuno Reader, Easy reader EAR 400 AC—SLT Labinstruments, AUSTRIA). Samples were tested in duplicate and retested, if the two OD values differed more than 10% from the mean. To eliminate plate-to-plate and day-to-day variations, a reference serum pool based on seven western blot positive sera were included on every plate for construction of a standard dilution curve with a two fold dilution ranging from 1:200 to 1:6400. The OD value of every sample was adjusted to this standard curve. Positive and negative control sera were included on every plate. The positive control sera were diluted 1:200, 1:400 and 1:800 on every plate to check for parallelism between the standard reference curve and the dilution curve of the positive control sera.
The diagnostic cutoff OD was adjusted to be 98% specific for an IgM assay on the basis of serum samples from 100 healthy danish blood donors, and was 0.230 for the IgM assay.
In a preliminary setup, rOspCt was used in the above-described rOspC ELISA. Sera from 47 patients with EM, 50 with NB, 30 with ACA and 29 with syphilis were tested against rOspCt.
The capability of an immunological agent according to the present invention to react with sera from patients in various stages of Lyme borreliosis was evaluated against that of recombinant OspC derived from B. garinii and against conventional flagellum ELISAs (performed as described in Hansen K. et al. (1991) and Hansen K. et al. (1988)). These flagellum assays (testing for IgM and IgG antibodies to native B. burgdorferi flagellum) are commercially available, a μ-capture ELISA (DAKO, Denmark code K006), and an indirect IgG ELISA (DAKO, Denmark code K416). Both assays use flagella purified from strain DK1 belonging to the genospecies of B. afzelii. The ELISAs were performed according to the instructions of the manufacturer, and the results were expressed as optical density (OD) values. In both assays the diagnostic cut-off level was adjusted to a specificity of 98% based on the examination of 100 blood donors.

[3] = system: IgG reactive with OspC in patient sera; assay: IgG rOspC ELISA combined with IgG flagellum ELISA
[4] = Early Lyme borreliosis (EM and NB) sera (n = 181), IgM

## 6-aminohexanoic acid-Pro-Val-Val-Ala-Glu-Ser-Pro-Lys-Lys-Pro [Peptide]
[1]; EM and NB sera, IgM, FIGS. 1-4
  OD titer compared with the rOspCfl ELISA: significantly higher
[1]; EM sera (n = 80), IgM, cutoff OD 0.460
  frequency (%) of positive sera, Peptide ELISA: n = 26 (32.5%)
[1]; EM, n = 80
  Peptide IgM negative and Flagellum IgM negative: n = 44 (55.00%)
  Peptide IgM negative and Flagellum IgM positive: n = 10 (12.50)
  Peptide IgM positive and Flagellum IgM negative: n = 6 (7.50%)
  Peptide IgM positive and Flagellum IgM positive: n = 20 (25.00%)
[1]; EM, n = 80, all sera
  Peptide IgM negative: n = 54 (67.5%)
  Peptide IgM positive: n = 26 (32.5%)
[1]; [4]
  frequency (%) of positive sera, Peptide ELISA: n = 72 (39.8%)
[1]; NB sera (n = 101), IgM
  frequency (%) of positive sera, Peptide ELISA: n = 46 (45.5%)
[1]; NB, n = 101
  Decapeptide IgM negative and Flagellum IgM negative: n = 25 (24.75%)
  Decapeptide IgM negative and Flagellum IgM positive: n = 30 (29.70%)
  Decapeptide IgM positive and Flagellum IgM negative: n = 12 (11.88%)
  Decapeptide IgM positive and Flagellum IgM positive: n = 33 (32.67%)
[1]; NB, n = 101, all sera
  Decapeptide IgM negative: n = 55 (54.5%)
  Decapeptide IgM positive: n = 46 (45.5%)
[1]; detecting early Lyme borreliosis (stage 1 and 2)
  sensitivity of the peptide ELISA relative to the rOspCfl ELISA: approximately 86%
[1]; first stage (EM)
  increase of overall sensitivity for IgM when adding peptide ELISA results to flagellum ELISA results: 7.5%
[1]; patients suffering from NB, FIG. 6
  accuracy (ROC plot) compared with the rOspCfl ELISA: more accurate
[1]; second stage (NB)
  increase of overall sensitivity for IgM when adding peptide ELISA results to flagellum ELISA results: 12%

B1: rOspCt: recombinant B. garinii OspC truncate which lacks the 7 carboxyterminal amino acids (protein)
chain: CNNSGGDSASTNPDESAKGPNLTVISKKITDSNAFLLAVKEVEALLSSIDELSKAIGKKIKNDGTLDNEANRNESLIAGAYEISKLITQKLSVLNSEELKEKIKEAKDCSEKFTTKLKDSHAELGIQSVQDDNAKKAILKTHGTKDKGAKELEELFKSLESLSKAAQAALTNSVKELTNPVVAESPKKP
modifications: left off: small tags and cut ends
notes: recombinant B. garinii OspC truncate which lacks the 7 carboxyterminal amino acids
[2]; ACA sera (N = 30), IgM
  Positive rOspCt ELISA results: n = 0 (0.00%)
[2]; EM and NB sera (n = 97), IgM
  Positive rOspCt ELISA results: n = 4 (4.12%)
[2]; EM sera (n = 47), serum panel 1, IgM, 98% specific cutoff
  Positive rOspCt ELISA results: n = 1 (2.12%)
[2]; NB sera (n = 50), serum panel 1, IgM
  Positive rOspCt ELISA results: n = 3 (6.00%)
[2]; Syphilis control sera (n = 29), IgM
  Positive rOspCt ELISA results: n = 5 (17.24%)

B2: rOspCfl: full-length recombinant OspC from Borrelia garinii strain DK6 (SEQ ID NO: 3), six-His fusion protein (protein, listed as Borrelia garinii)
chain: MKKNTLSAILMTLFLFISCNNSGGDSASTNPDESAKGPNLTVISKKITDSNAFLLAVKEVEALLSSIDELSKAIGKKIKNDGTLDNEANRNESLIAGAYEISKLITQKLSVLNSEELKEKIKEAKDCSEKFTTKLKDSHAELGIQSVQDDNAKKAILKTHGTKDKGAKELEELFKSLESLSKAAQAALTNSVKELTNPVVAESPKKP
modifications: six-His tag
[2]; EM sera (n = 80), IgM, B. garinii rOspCfl, cutoff OD 0.230
  frequency (%) of positive sera, rOspCfl ELISA: n = 45 (43.8%)
[2]; EM, n = 80
  rOspCfl IgM negative and Flagellum IgM negative: n = 38 (47.50%)
  rOspCfl IgM negative and Flagellum IgM positive: n = 7 (8.75%)
  rOspCfl IgM positive and Flagellum IgM negative: n = 12 (15.00%)
  rOspCfl IgM positive and Flagellum IgM positive: n = 23 (28.75%)
[2]; EM, n = 80, all sera
  rOspCfl IgM negative: n = 45 (56.25%)
  rOspCfl IgM positive: n = 35 (43.75%)
[2]; [4]
  frequency (%) of positive sera, rOspCfl ELISA: n = 94 (46.4%)
[2]; NB sera (n = 101), IgM, B. garinii rOspCfl
  frequency (%) of positive sera, rOspCfl ELISA: n = 49 (48.5%)
[2]; NB, n = 101
  rOspCfl IgM negative and Flagellum IgM negative: n = 25 (24.75%)
  rOspCfl IgM negative and Flagellum IgM positive: n = 26 (25.74%)
  rOspCfl IgM positive and Flagellum IgM negative: n = 12 (11.88%)
  rOspCfl IgM positive and Flagellum IgM positive: n = 37 (36.63%)
[2]; NB, n = 101, all sera
  rOspCfl IgM negative: n = 52 (51.5%)
  rOspCfl IgM positive: n = 49 (48.5%)
[2]; first stage of Lyme borreliosis (EM)
  increase of overall diagnostic sensitivity for IgM when adding rOspCfl ELISA results to flagellum ELISA results: 15%
[2]; first stage of Lyme borreliosis
  diagnostic sensitivity for IgM: 44%
[2]; second stage of Lyme borreliosis (NB)
  increase of overall diagnostic sensitivity for IgM when adding rOspCfl ELISA results to flagellum ELISA results: 12%
[2]; second stage of Lyme borreliosis
  diagnostic sensitivity for IgM: 48%
[3]
  improvement on adding IgG rOspC ELISA results to IgG flagellum ELISA results: no significant improvement
